Experimental data: the supplement of paper PMC10567573
± gives the standard deviation.

Experiment: protein stability index of a GFP-peptide fusion (GPS, HEK-293T) (PSI 1-6); higher = more stable
Conditions: c terminus: a fixed tail appended
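Further: 24-mer peptide tiles fused after GFP, lentivirally expressed, FACS-sorted into six equal bins by GFP/DsRed ratio, decoded by Illumina sequencing, PSI is the read-weighted mean bin number.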

Sequence | protein stability index (treatment: DMSO) | protein stability index (treatment: MLN4924 1 uM, 8 h)
EVIEKPENDPEWWKCKNARGQVGL [NCK2] | 4.28 ± 0.31 | 4.368 ± 0.038
EVIPYTPAMQRYVKRLHEVGRTEP [HMOX1] | 3.18 ± 0.21 | 3.41 ± 0.25
EVNSAEELEGLIADPDEMRMQALL [FEM1C] | 4.89 ± 0.16 | 5 ± 0.3
EVPQLPPRASISHVTCVDQSEHTM [C2CD2L] | 4.66 ± 0.15 | 4.7 ± 0.25
EYLSFFDFSGLTLDGALRTFLKAF [PSD2] | 2.44 ± 0.31 | 2.01 ± 0.34
FAKLEKLTILAKRKSLFDDKAVEI [STX5] | 2.47 ± 0.23 | 2.48 ± 0.53
FDVKNDRYIVNGSHEANKLQDMLD [EIF5] | 3.97 ± 0.11 | 3.81 ± 0.25
FEEVLSSTAHASAQSLAGGSRRTK [TPD52L1] | 5.16 ± 0.16 | 5.11 ± 0.24
FEQILSLPELKANPFKERICRVFS [CIB1] | 2.25 ± 0.2 | 2.38 ± 0.16
FFFDRNPGAFGTILTFLRAGKLRL [KCNG1] | 2.48 ± 1.3 | 2.07 ± 0.11
FGERRIPRGRRISVICRSLPEGMG [ALKBH7] | 2.82 ± 0.29 | 2.87 ± 0.26
FGRKDHLTRHTKKTHSQELMKESL [PLAGL1] | 3.53 ± 0.2 | 3.77 ± 0.26
FIYSLKQMLLNVEANSAKVQEDLE [FSD1] | 2.55 ± 0.16 | 2.38 ± 0.28
FKDEWTQLDMFYRNWALKESFIKA [AASDHPPT] | 2.02 ± 0.16 | 2.22 ± 0.14
FKPVVAAQKISKGADPKSVVCAFF [ZC3H15] | 2.32 ± 1 | 2.81 ± 1.5
FLDLMETIDKQREEMAKSSRASAA [LRRC45] | 3.71 ± 0.11 | 4.08 ± 0.3
FLKEYFPIEVVTEGLLNTYQELLG [NLN] | 2.44 ± 0.51 | 2.52 ± 0.55
FLSGLAFRVFHCTQYVRHSSDPFY [TPH1] | 2.67 ± 0.27 | 2.99 ± 0.4
FLVMKGQEGAASKVLGRLRALSDT [SLC2A12] | 2.27 ± 0.45 | 2.44 ± 0.39
FLWGPRALVETSYVKVLHHMVKIS [MAGEA3] | 2.01 ± 0.35 | 2.64 ± 0.71
FMAYEQIKRLVGSDQETLRIHERL [SLC25A25] | 3.08 ± 0.26 | 2.97 ± 0.42
FNEMSAQGLRPRTVSSPIPYTPSP [CCDC6] | 4.02 ± 0.3 | 4.12 ± 0.23
FPVAEQDKLLKHMIIEHKIVIADV [ZNF277] | 2.25 ± 0.18 | 2.4 ± 0.34

Sequence | protein stability index (treatment: DMSO) | protein stability index (treatment: MLN4924 1 uM, 8 h)
FQEWEAHRNLSQLPNFAFSVPLAY [TCF25] | 2.73 ± 0.58 | 2.4 ± 0.25
FSPIAIDGMSGLAGVGLSGGAAGA [ELAVL3] | 3.04 ± 0.26 | 3.2 ± 0.26
FSTCGSHLTVVAIFYGSGIFNYMR [OR3A1] | 2.89 ± 0.56 | 2.94 ± 0.49
FTTFRGTELSFLVTTHQPTNLVLP [EDNRA] | 2.84 ± 0.74 | 2.29 ± 0.37
FTVGSVLGQILVSVAGWSLFSLNV [SLC19A2] | 3.28 ± 0.33 | 3.1 ± 0.63
FVYENAKEGARNIRTSERVTLIVD [BTBD10] | 2.55 ± 0.6 | 3.06 ± 0.5
FYRLYQDLETHRLPCTSRCPRPCR [SCNN1D] | 2.8 ± 0.26 | 2.99 ± 0.35
GAAQEALSIQLQPKETQPFPKSEQ [ZNF232] | 5.17 ± 0.25 | 5.22 ± 0.23
GAFQAQEKELVFDIDMTDYDDVRR [PRIM1] | 4.72 ± 0.4 | 4.71 ± 0.14
GAKDSELASQNKPLWQCYLGRFND [PDS5B] | 2.51 ± 0.37 | 3.25 ± 0.3
GAPLIRVHSSPVSSPSVSGPRRLV [SPACA3] | 3.24 ± 0.31 | 3.6 ± 0.19
GARPVSSAASVYAGAGGSGSRISV [KRT18] | 3.66 ± 0.34 | 3.75 ± 0.19
GDGKSKKKQAGRPKGSKGKEKDSP [RBBP5] | 5.39 ± 0.29 | 5.34 ± 0.11
GDLGDPFHLGLEDILMEEEEGVVG [TFE3] | 5.33 ± 0.34 | 5.3 ± 0.2
GDWAPPPEGGMEQALAGASSGREL [ZNF263] | 5.35 ± 0.36 | 5.37 ± 0.16
GEKPYLSPDILEEKHCEFKQLALD [ATL3] | 4.42 ± 0.25 | 4.92 ± 0.12
GESYESCCPTSREAAVEALELLGA [FEM1A] | 4.58 ± 0.12 | 4.66 ± 0.2
GGSTSAHYAVNSQFTMGGPAISMA [CARM1] | 2.94 ± 0.55 | 2.94 ± 0.25
GHLCAAEVVKIRDSFSNQNTETKD [DLC1] | 4.18 ± 0.063 | 4.14 ± 0.22
GIKGLVRDSHGKGIPNAIISVEGI [CPXM2] | 2.8 ± 0.067 | 
GIRKEDLDIVCERFTTSKLQSFED [MLH1] | 3.6 ± 0.22 | 
GIVVESNHDSHMAKERAHSTASHS [PDZK1] |  | 4.44 ± 0.21
GKKDKHSQSPRAAGPREGHSHSHH [PBXIP1] | 5.32 ± 0.31 | 5.26 ± 0.1

Sequence | protein stability index (treatment: DMSO) | protein stability index (treatment: MLN4924 1 uM, 8 h)
GLEGLEDAPPVELQLLHECSPSQM [FANCE] | 4.77 ± 0.19 | 4.66 ± 0.12
GLGGGSSRTSCRLSGGLGAGSCRL [KRT17] | 2.41 ± 0.13 | 2.35 ± 0.41
GLGYFSCHSHTVVQDYSYFFFLRM [CCDC3] | 2.66 ± 0.71 | 2.3 ± 0.55
GLQAQIASSGLTVEVDAPKSQDLA [KRT18] | 4.77 ± 0.35 | 4.94 ± 0.47
GLQSPGTLQPPEFLYSHGVPRTLS [TBX5] | 3.32 ± 0.27 | 3.49 ± 0.36
GLSPRVIRVWFQNKRCKDKKKSIL [ISL2] | 2.13 ± 0.45 | 2.36 ± 0.085
GLVYRIHSVLQGFIPLFQKFRLTG [TMEM40] | 3.03 ± 0.56 | 2.73 ± 0.37
GMLDVADESLTDLEAQPYEAVFLR [P3H4] | 4.02 ± 0.47 | 4.19 ± 0.21
GNAKGKILVLKTDSQDLVASFRVT [RBBP5] | 2.17 ± 0.19 | 2.11 ± 0.28
GNKQWWFGGGCDLTPTYLNQEDAI [CPOX] | 3.12 ± 0.19 | 3.33 ± 0.23
GNRILDEKEQEKMRQDLEEERVAL [PKD2L1] | 5.24 ± 0.74 | 5.57 ± 0.27
GNTAVSVLMLLVALLFTGIAVLGI [SCAMP3] | 1.99 ± 0.37 | 1.96 ± 0.34
GPAASEGAEQPPDLHCVLVTNPHS [GADD45A] | 4.97 ± 0.14 | 4.95 ± 0.1
GPCEGPSKEDKDLDSSEGSSQEDE [SPANXN3] | 5.68 ± 0.14 | 5.68 ± 0.14
GQENDATSPHFSTRHEGSFQVPVL [CD69] | 3.68 ± 0.35 | 3.69 ± 0.14
GQGAMFRLPTDSHFPYDLHLRSQS [NEUROD6] | 3.02 ± 0.3 | 3.11 ± 0.22
GRCLEVEMSKDANFGLRLVVQRCS [GALNT9] | 2.27 ± 0.15 | 2 ± 0.41
GRECQPRWETSSWSECSRTCGEGY [ADAMTSL2] | 3.78 ± 0.15 | 3.49 ± 0.092
GSALTFREEQCAAYNHRTDLFKSF [ADAMTS4] | 2.97 ± 0.17 | 2.88 ± 0.22
GSRPACQLQVPTLRQQCAQVLRNN [ELOA2] | 4.43 ± 0.14 | 4.51 ± 0.3
GSSLSGSLCSLLESQSTSLRGSYN [LURAP1L] | 3.07 ± 0.14 | 2.87 ± 0.29
GSTAITPGTPPSYSSRTPGTPGTP [MAP2] | 4.87 ± 0.2 | 4.98 ± 0.11
GTLIGVGQSVTAVGRIIAPLLSGV [MFSD9] | 2.03 ± 0.17 | 2.2 ± 0.29

Sequence | protein stability index (treatment: DMSO) | protein stability index (treatment: MLN4924 1 uM, 8 h)
GVPQIWEKIHEMVKKNSAKSMGLK [ACSBG2] | 2.09 ± 0.21 | 2.53 ± 0.046
GYGRDRDYSDHPSGGSYRDSYESY [RBMX] | 3.91 ± 0.2 | 3.462 ± 0.032
GYRDYGHSRRHESYSRGYSYHDGY [RBMY1A1] | 2.64 ± 0.25 | 2.61 ± 0.45
GYSMNFNMSSSRGPLPVKRGPPPR [RBMX] | 3.16 ± 0.23 | 3.82 ± 0.72
HARLRLSADRLTVRCGLLGSLGPV [TRIM14] | 2.2 ± 0.65 | 2.31 ± 0.3
HCHIEESEHVLKKAHKYSELIILY [VPS39] | 2.21 ± 0.33 | 2.12 ± 0.3
HFFGDKALKKRSGKKDKHSQSPRA [PBXIP1] | 4.09 ± 0.36 | 4.33 ± 0.45
HFSRLCGPESPPPPYSRLSPRDEY [SMAD6] | 3.42 ± 0.07 | 3.56 ± 0.17
HGHMCIAFELLGKNTFEFLKENNF [CLK3] | 2.55 ± 0.87 | 2.92 ± 1.3
HGLQEGKDLFTQRQNSAPARMLSS [CDC25A] | 4.4 ± 0.18 | 4.46 ± 0.15
HHFFCDIAPVLKLASHHNHFSQIV [OR10K2] | 2.45 ± 0.45 | 2.67 ± 0.55
HHVADAYTSSQKVSPIQIDGAGRT [TOR1AIP2] | 3.53 ± 0.21 | 3.74 ± 0.46
HINSISVNSDYETYMSADDLRINL [PPP2R2B] | 3.15 ± 0.46 | 3.2 ± 0.54
HKIKHKHILAKNYFSQVPVLASFI [IQUB] | 2.34 ± 0.37 | 2.32 ± 0.55
HLEEPGETQNAFLNERKQASAIKK [CHGB] | 5.11 ± 0.14 | 5.2 ± 0.28
HQGIKPYKCSWCGKSFSQNTNLHT [ZNF75A] | 2.1 ± 0.002 | 2.52 ± 0.25
HQTQLLYQASAMMVESRYALLIVD [RAD51] | 3.17 ± 0.74 | 2.8 ± 0.66
HSFVLVTSLGLTYDGMLSDVQSMP [MAGEA10] | 2.83 ± 0.53 | 2.88 ± 0.47
HSMHKYQPRIHLVRAAQLCSQHWG [TBX6] | 2.14 ± 0.2 | 2.22 ± 0.3
HSPSCLARVTGELTMTFPAGIVRV [FCHO1] | 2.53 ± 0.44 | 2.67 ± 0.76
HSYCRMFLQRGADTNLGRLEDGQT [ASB7] | 2.73 ± 0.44 | 2.85 ± 0.48
